{"source": "patent US8415393B2", "about": "“Anti-bacterial drug targeting of genome maintenance interfaces” (Wisconsin Alumni Research Foundation, priority 2007, dated 2013)", "key": {"[1]": {"biological_target": "Escherichia coli Exonuclease I (Escherichia coli) (UniProt P04995)", "assay": "cell-based or functional assay"}, "[2]": {"biological_target": "ExoI Arg316 Ala variant (Escherichia coli) (UniProt P04995)", "assay": "cell-based or functional assay"}, "[3]": {"biological_target": "T1, fluorescein-labeled SSB C-terminal peptide, fluorescein-WMDFDDDIPF (E. coli)", "T1 construct": "also called F-WT; F-SSB-Ct", "T1 peptide": "fluorescein-WMDFDDDIPF", "assay": "equilibrium fluorescence anisotropy"}, "E. coli Exonuclease I": {"biological_target": "T2, E. coli Exonuclease I (Escherichia coli, UniProt P04995 1-475)", "T2 construct": "also called ExoI; Exol", "T2 sequence": "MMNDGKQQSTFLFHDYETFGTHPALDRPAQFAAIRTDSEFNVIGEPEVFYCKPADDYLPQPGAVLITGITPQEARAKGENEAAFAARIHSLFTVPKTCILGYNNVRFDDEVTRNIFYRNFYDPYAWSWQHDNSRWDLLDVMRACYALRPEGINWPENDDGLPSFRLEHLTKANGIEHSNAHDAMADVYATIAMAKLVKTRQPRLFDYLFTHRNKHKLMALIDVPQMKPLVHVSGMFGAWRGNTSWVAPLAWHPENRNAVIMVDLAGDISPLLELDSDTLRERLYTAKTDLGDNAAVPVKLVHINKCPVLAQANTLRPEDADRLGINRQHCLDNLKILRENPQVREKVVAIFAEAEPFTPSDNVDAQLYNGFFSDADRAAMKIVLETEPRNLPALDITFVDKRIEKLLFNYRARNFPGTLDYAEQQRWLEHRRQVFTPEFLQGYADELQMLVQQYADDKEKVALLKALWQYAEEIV", "assay": "fluorescence polarization competition: unlabeled peptide titrated into 1 uM ExoI with 10 nM fluorescein-labeled SSB C-terminal peptide"}}, "note": "Where no end group is shown, it is not given here. fluorescein = fluorescein moiety attached to the N-terminus of the peptide (N-terminal fluorescein label)", "data": [{"molecule": "E. coli single-stranded DNA-binding protein (from UniProt P0AGE0 2-178)", "values": [{"measurement": "ExoI nuclease activity on radiolabeled ssDNA, stimulation by SSB", "setting": "[1]", "result": 4, "unit": "fold"}, {"measurement": "SSB-stimulated ExoI nuclease activity", "setting": "[2]", "result": "< 2", "unit": "fold"}]}, {"molecule": "ExoI Glu318 Ala variant (enzyme, also called E318A; Glu318 variant) MMNDGKQQSTFLFHDYETFGTHPALDRPAQFAAIRTDSEFNVIGEPEVFYCKPADDYLPQPGAVLITGITPQEARAKGENEAAFAARIHSLFTVPKTCILGYNNVRFDDEVTRNIFYRNFYDPYAWSWQHDNSRWDLLDVMRACYALRPEGINWPENDDGLPSFRLEHLTKANGIEHSNAHDAMADVYATIAMAKLVKTRQPRLFDYLFTHRNKHKLMALIDVPQMKPLVHVSGMFGAWRGNTSWVAPLAWHPENRNAVIMVDLAGDISPLLELDSDTLRERLYTAKTDLGDNAAVPVKLVHINKCPVLAQANTLRPADADRLGINRQHCLDNLKILRENPQVREKVVAIFAEAEPFTPSDNVDAQLYNGFFSDADRAAMKIVLETEPRNLPALDITFVDKRIEKLLFNYRARNFPGTLDYAEQQRWLEHRRQVFTPEFLQGYADELQMLVQQYADDKEKVALLKALWQYAEEIV", "values": [{"measurement": "fold enhanced binding relative to wild-type ExoI", "setting": "[3]", "result": "~2", "unit": "fold"}]}, {"molecule": "ExoI Lys227 Ala variant (enzyme, basic ridge variant; also called K227A; Lys227 variant) MMNDGKQQSTFLFHDYETFGTHPALDRPAQFAAIRTDSEFNVIGEPEVFYCKPADDYLPQPGAVLITGITPQEARAKGENEAAFAARIHSLFTVPKTCILGYNNVRFDDEVTRNIFYRNFYDPYAWSWQHDNSRWDLLDVMRACYALRPEGINWPENDDGLPSFRLEHLTKANGIEHSNAHDAMADVYATIAMAKLVKTRQPRLFDYLFTHRNKHKLMALIDVPQMAPLVHVSGMFGAWRGNTSWVAPLAWHPENRNAVIMVDLAGDISPLLELDSDTLRERLYTAKTDLGDNAAVPVKLVHINKCPVLAQANTLRPEDADRLGINRQHCLDNLKILRENPQVREKVVAIFAEAEPFTPSDNVDAQLYNGFFSDADRAAMKIVLETEPRNLPALDITFVDKRIEKLLFNYRARNFPGTLDYAEQQRWLEHRRQVFTPEFLQGYADELQMLVQQYADDKEKVALLKALWQYAEEIV", "values": [{"measurement": "fold binding defect", "setting": "[3]", "result": 7, "unit": "fold"}]}, {"molecule": "WMDFDDDIPF (also called unlabeled peptide; SSB-Ct peptide)", "note": "[WT peptide (WMDFDDDIPF, without a fluorescent moiety)]", "values": [{"measurement": "Ki", "setting": "E. coli Exonuclease I", "result": 53, "unit": "nM"}]}]}
